Test results taken from patent publication US20210403506A1 (XDCEXPLORER SHANGHAI, published 2021).
Numbered stars: 1 amine (or outer) side, 2 acyl side, 3 side chain; on linkers, the order of the positions; unused ones are H or OH. Square brackets hold non-standard residues; d marks the D form. Ends that are not written are not given here. * marks the point of attachment. TP5C = (S)-4,5,6,7-tetrahydrothieno[2,3-c]pyridine-5-carboxylic acid, O=C([C@@H]1Cc2ccsc2CN1[*:1])[*:2]; TP6C = (S)-4,5,6,7-tetrahydrothieno[2,3-c]pyridine-6-carboxylic acid, O=C([C@@H]1Cc2ccsc2CN1[*:1])[*:2]; Bpa = N[C@@H](Cc1ccc(C(=O)c2ccccc2)cc1)C(=O)O; Pro(5R-Ph) = O=C(O)[C@@H]1CC[C@H](c2ccccc2)N1; 1Nal = N[C@@H](Cc1cccc2ccccc12)C(=O)O; 2Nal = N[C@@H](Cc1ccc2ccccc2c1)C(=O)O; dNMeY = CN[C@H](Cc1ccc(O)cc1)C(=O)O; Hydrocinnamoyl = O=C(CCc1ccccc1)*; Tic = O=C(O)[C@@H]1Cc2ccccc2CN1; dTic = O=C(O)[C@H]1Cc2ccccc2CN1; NMeL = CN[C@@H](CC(C)C)C(=O)O; Pro(4Ph) = 4-phenylproline; Nle = CCCC[C@H](N)C(=O)O; Thz = O=C(O)[C@@H]1CSCN1; dTi1c = not defined here; Aze = O=C(O)[C@@H]1CCN1; Nva = CCC[C@H](N)C(=O)O

Target: T1, human Chemokine like receptor 1 (human, UniProt Q99788 1-373)
T1 sequence (looked up): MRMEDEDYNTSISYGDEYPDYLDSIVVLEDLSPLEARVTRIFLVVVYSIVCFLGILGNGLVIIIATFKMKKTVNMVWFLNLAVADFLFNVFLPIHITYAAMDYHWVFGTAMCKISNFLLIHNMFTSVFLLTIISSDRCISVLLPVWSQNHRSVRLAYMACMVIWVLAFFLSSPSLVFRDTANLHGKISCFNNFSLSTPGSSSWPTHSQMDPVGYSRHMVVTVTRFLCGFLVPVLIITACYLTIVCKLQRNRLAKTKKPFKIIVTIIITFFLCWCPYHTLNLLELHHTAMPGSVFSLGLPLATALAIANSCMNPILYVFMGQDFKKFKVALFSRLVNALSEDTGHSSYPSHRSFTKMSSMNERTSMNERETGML
Test: cell-based or functional assay

[dY]F[Nva]P[dS]QF[dA][Tic]S [YW-196]
EC50 (µM), activation of Tango CMKLR1-bla U2OS cells: 0.039 µM

B1: YW-112 (peptide)
peptide: [dY]FL[Pro(5R-Ph)][dS]QF[dA][Tic]S-OH
modifications: N-terminus assumed
SMILES: CC(C)C[C@H](NC(=O)[C@H](Cc1ccccc1)NC(=O)[C@H](N)Cc1ccc(O)cc1)C(=O)N1[C@@H](c2ccccc2)CC[C@H]1C(=O)N[C@H](CO)C(=O)N[C@@H](CCC(N)=O)C(=O)N[C@@H](Cc1ccccc1)C(=O)N[C@H](C)C(=O)N1Cc2ccccc2C[C@H]1C(=O)N[C@@H](CO)C(=O)O
EC50 (µM), activation of Tango CMKLR1-bla U2OS cells: 0.17 µM

B2: YW-189 (peptide)
peptide: [dY]FLP[dS]QF[dA][Tic]S-NH2
modifications: N-terminus assumed
SMILES: CC(C)C[C@H](NC(=O)[C@H](Cc1ccccc1)NC(=O)[C@H](N)Cc1ccc(O)cc1)C(=O)N1CCC[C@H]1C(=O)N[C@H](CO)C(=O)N[C@@H](CCC(N)=O)C(=O)N[C@@H](Cc1ccccc1)C(=O)N[C@H](C)C(=O)N1Cc2ccccc2C[C@H]1C(=O)N[C@@H](CO)C(N)=O
EC50 (µM), activation of Tango CMKLR1-bla U2OS cells: 0.0068 µM

B3: YW-118 (peptide)
peptide: [dY]FLP[dS]Q[2Nal][dA][Tic]S-OH
modifications: N-terminus assumed
SMILES: CC(C)C[C@H](NC(=O)[C@H](Cc1ccccc1)NC(=O)[C@H](N)Cc1ccc(O)cc1)C(=O)N1CCC[C@H]1C(=O)N[C@H](CO)C(=O)N[C@@H](CCC(N)=O)C(=O)N[C@@H](Cc1ccc2ccccc2c1)C(=O)N[C@H](C)C(=O)N1Cc2ccccc2C[C@H]1C(=O)N[C@@H](CO)C(=O)O
EC50 (µM), activation of Tango CMKLR1-bla U2OS cells: 0.0069 µM

B4: YW-151 (peptide)
peptide: [dY]FLP[dS]QF[dA][dTi1c]S-OH
modifications: reading uncertain; also: printed as (D-Tyr)-Phe-Leu-Pro-(D-Ser)-Gln-Phe-(D-Ala)-(D-Ti1c)-Ser
EC50 (µM), activation of Tango CMKLR1-bla U2OS cells: 0.027 µM

B5: YW-115 (peptide)
peptide: [dY]FL[Aze][dS]QF[dA][Tic]S-OH
modifications: N-terminus assumed
SMILES: CC(C)C[C@H](NC(=O)[C@H](Cc1ccccc1)NC(=O)[C@H](N)Cc1ccc(O)cc1)C(=O)N1CC[C@H]1C(=O)N[C@H](CO)C(=O)N[C@@H](CCC(N)=O)C(=O)N[C@@H](Cc1ccccc1)C(=O)N[C@H](C)C(=O)N1Cc2ccccc2C[C@H]1C(=O)N[C@@H](CO)C(=O)O
EC50 (µM), activation of Tango CMKLR1-bla U2OS cells: 0.19 µM

[dY]FLP[dS]QF[dA][Ti1c]S-OH [YW-150]
EC50 (µM), activation of Tango CMKLR1-bla U2OS cells: 0.062 µM

B6: YW-154 (peptide)
peptide: [dNMeY]FLP[dS]QF[dA][dTi1c]S-OH
modifications: reading uncertain; also: printed as (D-NMe-Tyr)-Phe-Leu-Pro-(D-Ser)-Gln-Phe-(D-Ala)-(D-Ti1c)-Ser
EC50 (µM), activation of Tango CMKLR1-bla U2OS cells: 0.034 µM

[dNMeY]F[NMeL][Thz][dS]QF[dA][Tic]S [YW-123]
EC50 (µM), activation of Tango CMKLR1-bla U2OS cells: 0.001 µM

B7: YW-117 (peptide)
peptide: [dY]FLP[dS]Q[1Nal][dA][Tic]S-OH
modifications: N-terminus assumed
SMILES: CC(C)C[C@H](NC(=O)[C@H](Cc1ccccc1)NC(=O)[C@H](N)Cc1ccc(O)cc1)C(=O)N1CCC[C@H]1C(=O)N[C@H](CO)C(=O)N[C@@H](CCC(N)=O)C(=O)N[C@@H](Cc1cccc2ccccc12)C(=O)N[C@H](C)C(=O)N1Cc2ccccc2C[C@H]1C(=O)N[C@@H](CO)C(=O)O
EC50 (µM), activation of Tango CMKLR1-bla U2OS cells: 0.0039 µM

[dY]FL[Pro(4Ph)][dS]QF[dA][Tic]S-OH [YW-113]
EC50 (µM), activation of Tango CMKLR1-bla U2OS cells: 0.0086 µM

B8: YW-149 (peptide)
peptide: [dY]FLP[dS]QF[dA][dTic]S-OH
modifications: N-terminus assumed
SMILES: CC(C)C[C@H](NC(=O)[C@H](Cc1ccccc1)NC(=O)[C@H](N)Cc1ccc(O)cc1)C(=O)N1CCC[C@H]1C(=O)N[C@H](CO)C(=O)N[C@@H](CCC(N)=O)C(=O)N[C@@H](Cc1ccccc1)C(=O)N[C@H](C)C(=O)N1Cc2ccccc2C[C@@H]1C(=O)N[C@@H](CO)C(=O)O
EC50 (µM), activation of Tango CMKLR1-bla U2OS cells: 0.021 µM

B9: YW-159 (peptide)
peptide: [dY]FLP[dS]QF[dA][TP6C]S-OH
modifications: N-terminus assumed
SMILES: CC(C)C[C@H](NC(=O)[C@H](Cc1ccccc1)NC(=O)[C@H](N)Cc1ccc(O)cc1)C(=O)N1CCC[C@H]1C(=O)N[C@H](CO)C(=O)N[C@@H](CCC(N)=O)C(=O)N[C@@H](Cc1ccccc1)C(=O)N[C@H](C)C(=O)N1Cc2sccc2C[C@H]1C(=O)N[C@@H](CO)C(=O)O
EC50 (µM), activation of Tango CMKLR1-bla U2OS cells: 0.018 µM

[dY]F[Nle]P[dS]QF[dA][Tic]S [YW-197]
EC50 (µM), activation of Tango CMKLR1-bla U2OS cells: 0.01 µM

B10: YW-71 (peptide)
peptide: Hydrocinnamoyl-[dY]FLP[dS]QF[dA][Tic]S-OH
SMILES: CC(C)C[C@H](NC(=O)[C@H](Cc1ccccc1)NC(=O)[C@@H](Cc1ccc(O)cc1)NC(=O)CCc1ccccc1)C(=O)N1CCC[C@H]1C(=O)N[C@H](CO)C(=O)N[C@@H](CCC(N)=O)C(=O)N[C@@H](Cc1ccccc1)C(=O)N[C@H](C)C(=O)N1Cc2ccccc2C[C@H]1C(=O)N[C@@H](CO)C(=O)O
EC50 (µM), activation of Tango CMKLR1-bla U2OS cells: 0.031 µM

B11: YW-114 (peptide)
peptide: [dY]FL[Thz][dS]QF[dA][Tic]S-OH
modifications: N-terminus assumed
SMILES: CC(C)C[C@H](NC(=O)[C@H](Cc1ccccc1)NC(=O)[C@H](N)Cc1ccc(O)cc1)C(=O)N1CSC[C@H]1C(=O)N[C@H](CO)C(=O)N[C@@H](CCC(N)=O)C(=O)N[C@@H](Cc1ccccc1)C(=O)N[C@H](C)C(=O)N1Cc2ccccc2C[C@H]1C(=O)N[C@@H](CO)C(=O)O
EC50 (µM), activation of Tango CMKLR1-bla U2OS cells: 0.005 µM

B12: YW-119 (peptide)
peptide: [dY]FLP[dS]Q[Bpa][dA][Tic]S-OH
modifications: N-terminus assumed
SMILES: CC(C)C[C@H](NC(=O)[C@H](Cc1ccccc1)NC(=O)[C@H](N)Cc1ccc(O)cc1)C(=O)N1CCC[C@H]1C(=O)N[C@H](CO)C(=O)N[C@@H](CCC(N)=O)C(=O)N[C@@H](Cc1ccc(C(=O)c2ccccc2)cc1)C(=O)N[C@H](C)C(=O)N1Cc2ccccc2C[C@H]1C(=O)N[C@@H](CO)C(=O)O
EC50 (µM), activation of Tango CMKLR1-bla U2OS cells: 0.0099 µM

B13: YW-158 (peptide)
peptide: [dY]FLP[dS]QF[dA][TP5C]S-OH
modifications: N-terminus assumed
SMILES: CC(C)C[C@H](NC(=O)[C@H](Cc1ccccc1)NC(=O)[C@H](N)Cc1ccc(O)cc1)C(=O)N1CCC[C@H]1C(=O)N[C@H](CO)C(=O)N[C@@H](CCC(N)=O)C(=O)N[C@@H](Cc1ccccc1)C(=O)N[C@H](C)C(=O)N1Cc2sccc2C[C@H]1C(=O)N[C@@H](CO)C(=O)O
EC50 (µM), activation of Tango CMKLR1-bla U2OS cells: 0.065 µM
